pKd: −log10 of the molar value.
Experiments:
[1] = molecular target: HLA-C*08:02; assay: IEDB peptide-MHC binding, purified MHC/direct/fluorescence; filed as Kd, often an IC50 or EC50 that approximates it; ≥ and ≤ were set here for values at or beyond the usual limits of such assays
[2] = molecular target: HLA-A*29:02; assay: IEDB peptide-MHC binding, purified MHC/competitive/fluorescence; filed as Kd, often an IC50 or EC50 that approximates it; ≥ and ≤ were set here for values at or beyond the usual limits of such assays; details: source organism: Bacillus anthracis str. A0488
[3] = molecular target: HLA-C*14:02; assay: IEDB peptide-MHC binding, purified MHC/direct/fluorescence; filed as Kd, often an IC50 or EC50 that approximates it; ≥ and ≤ were set here for values at or beyond the usual limits of such assays; details: source organism: Influenza A virus (A/swine/Italy/1509-6/97(H1N1))
[4] = molecular target: HLA-C*06:02; assay: as above; details: source organism: Influenza A virus (A/swine/Italy/1509-6/97(H1N1))
[5] = molecular target: HLA-B*07:02; assay: IEDB peptide-MHC binding, purified MHC/competitive/fluorescence; filed as Kd, often an IC50 or EC50 that approximates it; ≥ and ≤ were set here for values at or beyond the usual limits of such assays; details: source organism: Influenza A virus (A/swine/Italy/1509-6/97(H1N1))
[6] = molecular target: HLA-A*24:03; assay: IEDB peptide-MHC binding, purified MHC/direct/fluorescence; filed as Kd, often an IC50 or EC50 that approximates it; ≥ and ≤ were set here for values at or beyond the usual limits of such assays; details: source organism: Mycobacterium tuberculosis
[7] = molecular target: HLA-C*04:01; assay: as above
[8] = molecular target: HLA-C*03:03; assay: as above
[9] = molecular target: HLA-C*12:03; assay: as above
[10] = molecular target: HLA-C*05:01; assay: as above; details: source organism: Variola virus
[11] = molecular target: HLA-A*69:01; assay: as above
[12] = molecular target: HLA-A*02:03; assay: IEDB peptide-MHC binding, purified MHC/competitive/radioactivity; filed as Kd, often an IC50 or EC50 that approximates it; ≥ and ≤ were set here for values at or beyond the usual limits of such assays; details: source organism: Vaccinia virus WR
[13] = molecular target: HLA-A*02:06; assay: as above; details: source organism: Vaccinia virus WR
[14] = molecular target: HLA-A*02:02; assay: as above; details: source organism: Vaccinia virus WR
[15] = molecular target: HLA-A*26:01; assay: IEDB peptide-MHC binding, purified MHC/direct/fluorescence; filed as Kd, often an IC50 or EC50 that approximates it; ≥ and ≤ were set here for values at or beyond the usual limits of such assays; details: source organism: Influenza A virus (A/chicken/Beijing/nl/2002(H9N2))
[16] = molecular target: HLA-A*26:02; assay: as above; details: source organism: Influenza A virus(A/swine/Shandong/fNY/2003(H9N2))
[17] = molecular target: HLA-B*15:17; assay: as above; details: source organism: Bacillus anthracis
[18] = molecular target: HLA-B*51:01; assay: as above; details: source organism: Bacillus anthracis
[19] = molecular target: HLA-A*01:01; assay: as above; details: source organism: Bacillus anthracis
[20] = molecular target: HLA-B*58:01; assay: as above; details: source organism: Bacillus anthracis
[21] = molecular target: HLA-A*31:01; assay: as above; details: source organism: Bacillus anthracis
[22] = molecular target: HLA-B*15:01; assay: as above; details: source organism: Bacillus anthracis
[23] = molecular target: HLA-A*03:01; assay: as above; details: source organism: Bacillus anthracis
[24] = molecular target: HLA-A*02:01; assay: as above; details: source organism: Bacillus anthracis
[25] = molecular target: HLA-B*40:01; assay: as above; details: source organism: Bacillus anthracis
[26] = molecular target: HLA-B*57:01; assay: as above; details: source organism: Bacillus anthracis
[27] = molecular target: HLA-B*48:01; assay: as above; details: source organism: Bacillus anthracis
[28] = molecular target: HLA-B*18:01; assay: as above; details: source organism: Bacillus anthracis
[29] = molecular target: HLA-B*46:01; assay: as above; details: source organism: Bacillus anthracis
[30] = molecular target: HLA-B*27:05; assay: IEDB peptide-MHC binding, purified MHC/competitive/fluorescence; filed as Kd, often an IC50 or EC50 that approximates it; ≥ and ≤ were set here for values at or beyond the usual limits of such assays; details: source organism: Escherichia coli APEC O1
[31] = molecular target: HLA-A*11:01; assay: as above; details: source organism: Escherichia coli APEC O1
[32] = molecular target: HLA-B*46:01; assay: as above; details: source organism: Escherichia coli 536
[33] = source organism: Yellow fever virus
[34] = source organism: Escherichia coli 536

Q: YTVQGAGLM was tested. Which pKd ([1]; source organism: Bacillus anthracis str. A0488) did it give?
A: The pKd was ≤ 4.70.

Q: What about the pKd [2] of the same sequence?
A: Its pKd is 7.59.

Q: With ATYQRTRAL as the sequence, how does the pKd [3] read?
A: Its pKd is 6.61.

Q: And the pKd [4]?
A: The pKd was 7.12.

Q: And the pKd [5]?
A: Its pKd is 6.71.

Q: With YYIIETEHL as the sequence, how does the pKd [6] read?
A: The pKd was 9.70.

Q: What about the pKd ([7]; source organism: Mycobacterium tuberculosis H37Ra) of the same sequence?
A: The pKd was ≤ 4.70.

Q: With YMPDVLEKL as the sequence, how does the pKd [8, 33] read?
A: The pKd was ≤ 4.70.

Q: And the pKd [1, 33]?
A: Its pKd is ≤ 4.70.

Q: What about the pKd [9, 33] of the same sequence?
A: Its pKd is ≤ 4.70.

Q: What does the source list for KVDDTFYYV?
A: pKd ([8]; source organism: Variola virus): ≤ 4.70; pKd [10]: 8.52; pKd ([11]; source organism: Camelpox virus CMS): 8.70; pKd [12]: ≤ 4.11; pKd [13]: ≤ 4.46; pKd [14]: 5.73

Q: Which results are given for TTVDHMAII?
A: pKd [15]: 7.17; pKd [16]: 7.92

Q: TPRIANRLL was tested. Which pKd [17] did it give?
A: Its pKd is ≤ 4.70.

Q: And the pKd [18]?
A: Its pKd is ≤ 4.70.

Q: And the pKd [19]?
A: The pKd was ≤ 4.70.

Q: What about the pKd [20] of the same sequence?
A: Its pKd is ≤ 4.70.

Q: And the pKd [21]?
A: The pKd was ≤ 4.70.

Q: And the pKd [22]?
A: The pKd was ≤ 4.70.

Q: What about the pKd [23] of the same sequence?
A: The pKd was ≤ 4.70.

Q: What about the pKd ([11]; source organism: Bacillus anthracis) of the same sequence?
A: Its pKd is ≤ 4.70.

Q: What about the pKd [24] of the same sequence?
A: Its pKd is ≤ 4.70.

Q: And the pKd [25]?
A: Its pKd is ≤ 4.70.

Q: What about the pKd [26] of the same sequence?
A: The pKd was ≤ 4.70.

Q: What about the pKd [27] of the same sequence?
A: Its pKd is ≤ 4.70.

Q: And the pKd [28]?
A: Its pKd is ≤ 4.70.

Q: What about the pKd [29] of the same sequence?
A: Its pKd is ≤ 4.70.

Q: And the pKd [30]?
A: Its pKd is ≤ 4.70.

Q: What about the pKd [31] of the same sequence?
A: The pKd was 5.86.

Q: With FMFDSDEAM as the sequence, how does the pKd [8, 34] read?
A: The pKd was 8.30.

Q: And the pKd [7, 34]?
A: Its pKd is ≤ 4.70.

Q: What about the pKd [9, 34] of the same sequence?
A: The pKd was 6.76.

Q: And the pKd [32]?
A: The pKd was 7.53.

Reference: the Immune Epitope Database (IEDB)
